These results are taken from article PMC8643638 (Nucleic Acids Research, 2021).

Positions count from the first letter of the chain named. In names and notes the source's numbering stands.

In one series the target is T1, Sis0811Δ268 (Saccharolobus islandicus, UniProt F0NH89).
T1 sequence (F0NH89 1-268): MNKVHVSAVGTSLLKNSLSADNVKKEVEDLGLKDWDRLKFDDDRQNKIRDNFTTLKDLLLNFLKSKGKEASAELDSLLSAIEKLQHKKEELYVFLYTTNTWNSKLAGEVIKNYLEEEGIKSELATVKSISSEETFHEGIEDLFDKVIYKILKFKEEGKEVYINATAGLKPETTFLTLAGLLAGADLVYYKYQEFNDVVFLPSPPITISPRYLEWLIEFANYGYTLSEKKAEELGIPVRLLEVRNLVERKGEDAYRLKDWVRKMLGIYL
As to the kind of experiment: isothermal titration calorimetry, single-site model. Format: binding. For orientation: Isothermal titration calorimetry measures the heat released or taken up as one component is titrated into another.

Series [1] addresses T2, Sis0811 (SisRN0811), full length (Saccharolobus islandicus, UniProt F0NH89).
T2 sequence (F0NH89 1-322): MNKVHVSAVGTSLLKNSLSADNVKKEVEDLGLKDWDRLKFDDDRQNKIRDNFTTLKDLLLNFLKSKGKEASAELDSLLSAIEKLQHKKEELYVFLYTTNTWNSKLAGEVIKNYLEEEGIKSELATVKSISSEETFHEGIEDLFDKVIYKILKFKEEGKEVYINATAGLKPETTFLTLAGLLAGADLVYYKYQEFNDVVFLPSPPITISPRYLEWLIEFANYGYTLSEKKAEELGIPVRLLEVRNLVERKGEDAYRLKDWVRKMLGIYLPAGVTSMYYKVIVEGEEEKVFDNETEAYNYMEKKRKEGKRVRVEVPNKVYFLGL
Described as above. Type of series: binding.

The series “SEC-MALS” deals with the molecule itself. As to the kind of experiment: SEC-MALS. (In general: Size exclusion chromatography separates by hydrodynamic size, large species first.)
The series “crystal structure” concerns the molecule itself. The experiment in a line: crystal structure.

In the case of `Nc1ncnc2c1ncn2[C@@H]1O[C@@H]2COP(=O)(O)O[C@H]3[C@@H](O)[C@H](n4cnc5c(N)ncnc54)O[C@@H]3COP(=O)(O)O[C@H]3[C@@H](O)[C@H](n4cnc5c(N)ncnc54)O[C@@H]3COP(=O)(O)O[C@H]3[C@@H](O)[C@H](n4cnc5c(N)ncnc54)O[C@@H]3COP(=O)(O)O[C@H]2[C@H]1O` [cA4], the equilibrium dissociation constant (Kd) (in general, the constant that tells how readily two partners part at equilibrium) at Sis0811Δ268 was 5.9 nM; in series [1] it was 9.1 nM.

B1: Sis0811 full length (standalone ring nuclease from Sulfolobus islandicus REY15A) (enzyme, UniProt F0NH89 1-322, looked up)
chain: T2 sequence (F0NH89 1-322)
For the molecule B1, the stoichiometry N (usually the number of molecules, sites or subunits per partner or assembly) in “SEC-MALS” stood at 2.

B2: Sis0811_(Δ268) (truncated Sis0811 lacking the C-terminal 54 residues) (domain or fragment, Sulfolobus islandicus REY15A, UniProt F0NH89 1-268, looked up)
chain: T1 sequence (F0NH89 1-268)
As for B2, the “stoichiometry N” value in “SEC-MALS” stood at 2.

B3: Sis0811_(Δ268)(S12G/K169G) (domain or fragment, Sulfolobus islandicus REY15A, UniProt F0NH89 1-268, looked up)
chain: T1 sequence (F0NH89 1-268) with S12G, K169G
As for B3, in “crystal structure”, the binding result was “binds”.

B4: Sis0811_(Δ268)(S12A) (domain or fragment, Sulfolobus islandicus REY15A, UniProt F0NH89 1-268, looked up)
chain: T1 sequence (F0NH89 1-268) with S12A
B4: in the series “crystal structure”, the binding result was “binds”.
